Test results taken from paper PMC10602909.

Test system: ZNF506 ZF1-8 (C-terminal zinc finger array) (human)
Experiment: ITC
Conditions: ITC (MicroCal PEAQ-ITC): 100 mM Tris pH 8, 500 mM NaCl, 25 uM ZnCl2, 10 mM reduced glutathione; protein 20 uM, DNA 200 nM as printed; temperature not stated

PBS-Pro 28 bp dsDNA probe
Kd: 840 nM
